From patent CN112552399A (HENGYI BIOMEDICAL TECH SHANGHAI CO LTD, dated 2021)
Substitutions are numbered along the chain they refer to.

B1: 抗体37G2 (antibody, V domains shown)
VH: QVQLVQSGAEVKKPGSSVKVSCKASGGTFSSYAITWVRQAPGQGLEWMGGIIPIFGTANFAQKFQGRVTITADESTSTAYMELSSLRSEDTAVYYCAHLGGFADPFDYWGQGTLVTVSS
VL: EIVLTQSPATLSLSPGERATLSCRASQSVSNYLAWYQQKAGQAPRVLIYDAFNRATGIPARFSGSGSGTDFTLTISSLEPEDFAVYYCQQRSNWPPRITFGQGTRLEIK
B2: 抗体31C2 (antibody, V domains shown)
VH: QVQLVQSGAEVKKPGSSVKVSCKASGGTFSSYAISWVRQAPGQGLEWMGGIIPIFGTTNYAQKFQGRVTITADESTSTAYMELNSLRSEDTAVYYCAGRSAYGDKGYYFDYWGQGTLVTVSS
VL: B1 VL with Y32F, A40P, V46L, F52S, E79Q, R97Q, I98E, R105K, L106V

Biological target: T1, SARS-CoV-2 S1亚基 (SARS-CoV-2, UniProt P0DTC2 16-685)
T1 construct: also called S1蛋白
Experiment: ELISA, coated S1, antibody detected with HRP goat anti-human IgG

Binder | binding result
B1 | no binding (tested: 1 μg/mL)
B2 | no binding (tested: 1 μg/mL)
